According to article PMC4993541 (Cell Cycle, 2016):

Target: FLAG-tagged full-length BRCA2 (human, UniProt P51587 1-3418)
Assay: pull-down

FLAG-tagged full-length BRCA2, sequence (P51587 whole entry): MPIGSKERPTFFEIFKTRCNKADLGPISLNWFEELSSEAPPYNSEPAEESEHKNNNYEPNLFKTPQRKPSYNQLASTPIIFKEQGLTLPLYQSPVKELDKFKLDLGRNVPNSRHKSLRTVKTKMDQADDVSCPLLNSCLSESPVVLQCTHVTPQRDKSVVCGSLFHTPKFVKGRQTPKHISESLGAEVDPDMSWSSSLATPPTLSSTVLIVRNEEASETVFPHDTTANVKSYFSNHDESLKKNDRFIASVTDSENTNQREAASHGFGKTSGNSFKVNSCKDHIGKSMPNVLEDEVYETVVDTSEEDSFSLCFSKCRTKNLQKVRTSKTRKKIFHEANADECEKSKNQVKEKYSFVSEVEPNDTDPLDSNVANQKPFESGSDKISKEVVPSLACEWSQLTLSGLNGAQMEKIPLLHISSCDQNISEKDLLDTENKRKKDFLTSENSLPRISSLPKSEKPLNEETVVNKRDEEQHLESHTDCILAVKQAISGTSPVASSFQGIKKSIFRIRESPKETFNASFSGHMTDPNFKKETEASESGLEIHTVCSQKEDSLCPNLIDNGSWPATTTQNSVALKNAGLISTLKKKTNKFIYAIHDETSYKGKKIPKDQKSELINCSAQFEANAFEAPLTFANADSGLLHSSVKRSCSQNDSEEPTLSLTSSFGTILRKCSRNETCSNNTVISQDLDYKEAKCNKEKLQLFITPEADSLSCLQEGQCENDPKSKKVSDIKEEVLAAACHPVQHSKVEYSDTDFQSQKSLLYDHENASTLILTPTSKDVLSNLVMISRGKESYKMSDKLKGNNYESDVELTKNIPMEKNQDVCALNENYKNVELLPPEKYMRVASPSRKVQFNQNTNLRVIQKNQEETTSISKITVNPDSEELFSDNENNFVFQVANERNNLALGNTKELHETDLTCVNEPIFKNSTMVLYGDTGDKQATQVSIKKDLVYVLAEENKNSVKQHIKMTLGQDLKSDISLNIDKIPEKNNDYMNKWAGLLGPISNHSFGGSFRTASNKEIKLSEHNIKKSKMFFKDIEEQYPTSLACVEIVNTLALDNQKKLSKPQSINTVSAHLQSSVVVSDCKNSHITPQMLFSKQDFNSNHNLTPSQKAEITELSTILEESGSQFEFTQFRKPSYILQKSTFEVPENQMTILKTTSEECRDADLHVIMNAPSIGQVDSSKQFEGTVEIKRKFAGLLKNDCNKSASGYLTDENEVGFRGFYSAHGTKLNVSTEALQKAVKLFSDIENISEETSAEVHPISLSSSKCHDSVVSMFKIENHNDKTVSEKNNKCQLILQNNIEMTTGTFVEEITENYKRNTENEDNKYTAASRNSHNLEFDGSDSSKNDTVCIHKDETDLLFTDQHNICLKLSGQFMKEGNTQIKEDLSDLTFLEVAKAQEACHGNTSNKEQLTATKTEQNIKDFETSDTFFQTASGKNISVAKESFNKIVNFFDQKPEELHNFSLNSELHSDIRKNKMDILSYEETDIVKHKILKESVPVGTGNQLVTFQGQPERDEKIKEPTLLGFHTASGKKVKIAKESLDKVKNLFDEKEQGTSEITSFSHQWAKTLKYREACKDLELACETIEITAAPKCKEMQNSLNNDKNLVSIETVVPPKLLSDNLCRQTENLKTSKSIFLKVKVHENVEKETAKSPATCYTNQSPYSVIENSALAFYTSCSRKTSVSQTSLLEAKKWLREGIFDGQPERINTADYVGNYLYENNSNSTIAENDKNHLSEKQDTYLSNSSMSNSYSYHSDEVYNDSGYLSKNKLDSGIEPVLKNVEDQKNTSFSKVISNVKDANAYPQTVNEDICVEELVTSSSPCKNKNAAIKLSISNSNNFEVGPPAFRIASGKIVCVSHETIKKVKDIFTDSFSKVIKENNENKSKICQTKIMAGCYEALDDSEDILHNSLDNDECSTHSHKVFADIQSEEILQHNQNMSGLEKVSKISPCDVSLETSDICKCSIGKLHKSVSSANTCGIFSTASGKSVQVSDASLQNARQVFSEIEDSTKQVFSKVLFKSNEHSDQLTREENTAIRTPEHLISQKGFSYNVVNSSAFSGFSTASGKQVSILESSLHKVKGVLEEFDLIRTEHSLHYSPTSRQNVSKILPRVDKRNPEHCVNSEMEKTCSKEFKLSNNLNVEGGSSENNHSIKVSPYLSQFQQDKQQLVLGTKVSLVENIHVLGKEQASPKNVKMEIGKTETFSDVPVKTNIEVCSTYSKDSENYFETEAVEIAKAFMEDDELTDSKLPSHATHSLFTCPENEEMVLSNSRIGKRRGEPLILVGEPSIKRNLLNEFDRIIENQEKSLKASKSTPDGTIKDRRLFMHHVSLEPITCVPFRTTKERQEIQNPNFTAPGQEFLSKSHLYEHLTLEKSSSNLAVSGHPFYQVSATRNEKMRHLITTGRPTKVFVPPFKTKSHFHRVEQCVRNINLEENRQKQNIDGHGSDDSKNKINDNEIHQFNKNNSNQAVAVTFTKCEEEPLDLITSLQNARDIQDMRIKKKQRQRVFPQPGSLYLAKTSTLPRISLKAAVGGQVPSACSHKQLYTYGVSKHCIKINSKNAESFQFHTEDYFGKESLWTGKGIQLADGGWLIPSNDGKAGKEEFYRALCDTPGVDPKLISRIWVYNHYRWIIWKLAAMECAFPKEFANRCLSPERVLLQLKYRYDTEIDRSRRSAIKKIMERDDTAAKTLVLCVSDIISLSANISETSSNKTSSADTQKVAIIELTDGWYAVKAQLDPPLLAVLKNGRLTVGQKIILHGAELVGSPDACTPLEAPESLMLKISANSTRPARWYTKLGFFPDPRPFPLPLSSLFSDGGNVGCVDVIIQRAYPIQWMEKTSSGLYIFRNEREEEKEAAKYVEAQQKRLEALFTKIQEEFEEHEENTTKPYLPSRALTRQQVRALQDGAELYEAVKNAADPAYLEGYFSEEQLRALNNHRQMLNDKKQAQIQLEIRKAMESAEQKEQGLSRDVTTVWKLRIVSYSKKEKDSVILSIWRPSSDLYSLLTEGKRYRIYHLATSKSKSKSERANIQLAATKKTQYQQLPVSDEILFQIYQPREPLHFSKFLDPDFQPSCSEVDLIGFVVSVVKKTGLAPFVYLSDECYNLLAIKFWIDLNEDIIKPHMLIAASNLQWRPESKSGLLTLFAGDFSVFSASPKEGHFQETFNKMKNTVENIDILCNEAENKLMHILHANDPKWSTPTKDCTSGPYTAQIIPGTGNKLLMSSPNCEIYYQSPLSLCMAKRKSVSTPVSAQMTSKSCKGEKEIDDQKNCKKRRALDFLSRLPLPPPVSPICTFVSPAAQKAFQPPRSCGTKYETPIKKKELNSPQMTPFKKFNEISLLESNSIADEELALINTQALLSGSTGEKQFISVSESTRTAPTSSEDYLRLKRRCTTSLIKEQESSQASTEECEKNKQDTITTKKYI

binding result: binds
B1: His-tagged full-length LIC2 (natural protein, human, UniProt O43237 1-492, looked up)
chain: MAPVGVEKKLLLGPNGPAVAAAGDLTSEEEEGQSLWSSILSEVSTRARSKLPSGKNILVFGEDGSGKTTLMTKLQGAEHGKKGRGLEYLYLSVHDEDRDDHTRCNVWILDGDLYHKGLLKFAVSAESLPETLVIFVADMSRPWTVMESLQKWASVLREHIDKMKIPPEKMRELERKFVKDFQDYMEPEEGCQGSPQRRGPLTSGSDEENVALPLGDNVLTHNLGIPVLVVCTKCDAVSVLEKEHDYRDEHLDFIQSHLRRFCLQYGAALIYTSVKEEKNLDLLYKYIVHKTYGFHFTTPALVVEKDAVFIPAGWDNEKKIAILHENFTTVKPEDAYEDFIVKPPVRKLVHDKELAAEDEQVFLMKQQSLLAKQPATPTRASESPARGPSGSPRTQGRGGPASVPSSSPGTSVKKPDPNIKNNAASEGVLASFFNSLLSKKTGSPGSPGAGGVQSTAKKSGQKTVLSNVQEELDRMTRKPDSMVTNSSTENEA
